Results published in publication doi:10.1101/2020.10.06.327742 (bioRxiv, 2020).
The star is where a group is joined. FITC = O=C1OC2(c3ccc(O)cc3Oc3cc(O)ccc32)c2ccc(NC(=S)*)cc21

Tests used:
Experiment in all cases: fluorescence polarisation
[1] = molecular target: FITC-labelled C-terminal peptide of ACE2 (FITC-…-COO-) (human)
[2] = molecular target: FITC-labelled ACE2 peptide with the predicted PTB binding motif (FITC-…-NH2) (human)
[3] = molecular target: AP2 μ2 (human unless Table 5 states otherwise (cells not shown))
SHANK1 PDZ = molecular target: T1, SHANK1 PDZ (human unless Table 5 states otherwise …, UniProt Q9Y566 663-757)
T1 sequence: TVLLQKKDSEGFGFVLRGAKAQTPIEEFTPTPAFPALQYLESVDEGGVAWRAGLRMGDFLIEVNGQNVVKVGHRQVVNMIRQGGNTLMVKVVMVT

**Q.** With NHERF3 PDZ1 (domain or fragment) as the molecule, how does the Kd [1] read?
**A.** Its Kd is 8 µM.

**Q.** SNX17 FERM domain (domain or fragment) was tested. Which Kd [2] did it give?
**A.** Its Kd is 200 to 300 µM.

**Q.** Which Ki [3] does the source give for “unphosphorylated ACE2 peptide (cytoplasmic tail region with the predicted AP2 μ2, NCK SH2 and ATG8 binding motifs)” here?
**A.** The Ki was 101 µM.

**Q.** For {FITC}-QNTDDVQTSF-OH [FITC-labelled C-terminal peptide of ACE2 (FITC-QNTDDVQTSF-COO-)], which Kd (SHANK1 PDZ) is on record?
**A.** The Kd was 14 µM.
